US20260070976A1 (Alector, published 2026)
Numbering of substitutions follows the chain as printed.

B1: X2 (antibody, V domains shown)
VH: QVQLVQSGAEVKKPGSSVKVSCKASGYNFLHYDVNWVRQAPGQGLEWMGGIIPIFGTANYAQKFQGRVTITADESTSTAYMELSSLRSEDTAVYYCATAVGAGWFDPWGQGTLVTVSS
VL: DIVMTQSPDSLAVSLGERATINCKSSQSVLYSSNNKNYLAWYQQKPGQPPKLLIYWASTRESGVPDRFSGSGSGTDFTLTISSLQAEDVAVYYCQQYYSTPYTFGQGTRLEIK
notes: conditioned media in the HEK293F assays
B2: X11 (antibody, human IgG4, V domains shown)
VH: B1 VH with H31N, A99G
VL: DIVMTQSPDSLAVSLGERATINCKSSQSVYFSENNKNYLAWYQQKPGQPPKLLIYWASTRESGVPDRFSGSGSGTDFTLTISSLQAEDVAVYYCQQYYEEPYTFGQGTRLEIK
notes: as for B1

What was measured:
[1] = target: T1, cell surface PILRA on human monocytes (human, UniProt Q9UKJ1 20-303); experiment: cell-based or functional assay
recombinant human PILRB [2] = target: T2, recombinant human PILRB (human, UniProt Q9UKJ0 20-191); experiment: SPR, Carterra LSA, steady-state fit
Protocol: (§1) Binding kinetics of human anti-PILRA-IgG4 antibodies were evaluated by surface plasmon resonance (SPR) using a Carterra LSA instrument (Carterra, Salt Lake City, UT). Antibodies were immobilized in duplicate arrays onto an HC30M sensor chip (Carterra) by amine coupling according to the manufacturer's protocol. After priming the immobilized antibodies with HBS-EP+ (Teknova, Hollister, CA, #8022) running buffer with 0.5 mg/mL BSA (MP Biomedicals LLC, #820451), the immobilized antibodies were tested for their ability to bind to recombinant human PILRA (SEQ ID NO:1) and cynomolgus PILRA (SEQ ID NO:120) and to human PILRB (SEQ ID NO:105) and cynomolgus PILRB (SEQ ID NO:121).
(§2) For binding kinetics analysis, human and cynomolgus PILRA and PILRB analytes were diluted in running buffer to 440 to 470 nM, and diluted 3-fold serially five times, to 1.8 to 1.9 nM, and injected for five minutes over the entire chip using the single channel flow cell to measure association of binding to the immobilized antibodies. Dissociation of the analytes was measured for five minutes, followed by regeneration of the chip with two 30-second injections of 10 mM glycine pH 2.0.
For the human PILRB interactions, the binding was too weak and heterogenous for kinetic constants to be calculated in this assay. Therefore, steady-state affinities were estimated based on the binding level of each analyte concentration at the end of the injections.

recombinant human PILRA [3] = target: T3, recombinant human PILRA (human, UniProt Q9UKJ1 20-197); experiment: SPR, Biacore T200, antibody captured by anti-Fab
Protocol: (§3) A subset of these antibodies was further evaluated using the Biacore T200 (Cytiva). Anti-PILRA antibodies were diluted to 10 μg/mL and captured using an anti-Fab (Cytiva, #28958325) surface on a CM4 chip, that was prepared by amine coupling according to the manufacturer's protocol. Human PILRA and cynomolgus PILRB were diluted in running buffer to 130 nM, and diluted 4-fold serially, twice, to 8 nM. Human PILRB was similarly diluted from 260 nM to 16 nM. These analytes were injected and allowed 2 minutes of association, followed by dissociation for 5 minutes.
(§4) Data were analyzed using Biacore evaluation software to generate kinetic constants. The equilibrium dissociation constants (KD) were calculated from the fitted association and dissociation rate constants (k-on and k-off) for each of the anti-PILRA antibodies. These Kn values are indicated with asterisks in Table 8 below.

recombinant human PILRB [4] = target: T2, recombinant human PILRB; experiment: SPR, Biacore T200, antibody captured by anti-Fab
Protocol: as §3, §4

recombinant human PILRA [5] = target: T3, recombinant human PILRA; experiment: SPR, Carterra LSA, antibody amine-coupled, kinetic fit
Protocol: as §1, §2

[6] = target: T4, recombinant cynomolgus PILRA (SEQ ID NO:120) (cynomolgus monkey); experiment: as above
T4 construct: also called cyno PILRA
Protocol: as §1, §2

[7] = target: T5, human PILRA G78 on HEK293F cells (human, UniProt Q9UKJ1 20-303); experiment: FACS on HEK293F cells, binding on human PILRA (hA) over human PILRB (hB)
T5 construct: also called hA; G78 OE
Protocol: (§5) Conditioned media samples containing the tested anti-PILRA antibodies were assessed for binding to HEK293F cells overexpressing human PILRA (hA), human PILRB (hB), and cynomolgus PILRA (cA) by FACS. The conditioned media containing the tested antibodies were incubated with the cells for 30 min at 4° C., washed twice, and then detected with goat anti-human IgG secondary antibody (Alexa Fluor 647) at 1:1000 dilution. The cells were analyzed by flow cytometry on FACS Canto II, and for all cell lines, the reported MFI values were calculated for each conditioned media. These antibodies were evaluated for nonspecific binding using a baculovirus particle (BVP) assay (Jain T., Sun T., Durand S., Hall A., Houston N. R., Nett J. H., Sharkey B., Bobrowicz B., Caffry L, Yu Y., et al. Biophysical properties of the clinical-stage antibody landscape. Proc. Natl. Acad. Sci. USA. 2017; 114:944-949. Doi: 10.1073/pnas.1616408114.). The BVP scores are listed in Table 9, and the higher the score the more nonspecific binding that occurred.

[8] = target: T6, cynomolgus PILRA on HEK293F cells (cynomolgus monkey, UniProt A0A7N9CRU1 20-292); experiment: cA Kd of Table 9; method not stated (Example 8: HEK293F overexpressing cells, FACS)
[9] = target: T5, human PILRA G78 on HEK293F cells; experiment: hA Kd of Table 9; method not stated (Example 8: HEK293F overexpressing cells, FACS)
[10] = target: T7, human PILRB on HEK293F cells (human, UniProt Q9UKJ0 20-227); experiment: hB Kd of Table 9; method not stated (Example 8: HEK293F overexpressing cells, FACS)
T7 construct: also called hB

[11] = target: T6, cynomolgus PILRA on HEK293F cells; experiment: flow cytometry; HEK293F cells overexpressing cynomolgus PILRA, goat anti-human IgG Alexa Fluor 647
[12] = target: T1, cell surface PILRA on human monocytes; experiment: flow cytometry; Alexa Fluor 647-conjugated antibody on human CD14+ monocytes (second donor sample), Fc receptors blocked, 30 min on ice
Protocol: (§6) Anti-human PILRA antibodies X0 (PA-29) and its affinity matured variants were tested for their abilities to bind cell surface PILRA on human and cynomolgus monocytes. CD14+ monocytes were isolated from healthy human donors using a RosetteSep Human Monocyte Enrichment Cocktail kit (StemCell). Cynomolgus white blood cells were collected from cynomolgus whole blood. In both human and cynomolgus samples, the Fc receptor on the tested monocytes was blocked and the monocytes were treated with Alexa Fluor 647-conjugated PILRA antibodies for 30 minutes on ice. A dose response curve of antibodies X0 (PA-29), X1, X2, X7, X11, X12, X13, X14, X16, X18, and X20 was tested for binding to cell surface PILRA in human and cynomolgus monocytes, and antibodies bound to PILRA in a dose response manner. In another sample of human donor monocytes, a dose response curve of antibodies X0 (PA-29), X1, X2, X11, X13, X18, X29 (PA-43), and X34 (A6) was tested for binding to cell surface PILRA in human and cynomolgus monocytes, and antibodies bound to PILRA in a dose response manner.

[13] = target: T5, human PILRA G78 on HEK293F cells; experiment: flow cytometry; HEK293F cells overexpressing human PILRA, goat anti-human IgG Alexa Fluor 647
Protocol: as §5

[14] = target: T1, cell surface PILRA on human monocytes; experiment: flow cytometry; Alexa Fluor 647-conjugated antibody on human CD14+ monocytes, Fc receptors blocked, 30 min on ice
Protocol: as §6

T1 sequence (Q9UKJ1 20-303): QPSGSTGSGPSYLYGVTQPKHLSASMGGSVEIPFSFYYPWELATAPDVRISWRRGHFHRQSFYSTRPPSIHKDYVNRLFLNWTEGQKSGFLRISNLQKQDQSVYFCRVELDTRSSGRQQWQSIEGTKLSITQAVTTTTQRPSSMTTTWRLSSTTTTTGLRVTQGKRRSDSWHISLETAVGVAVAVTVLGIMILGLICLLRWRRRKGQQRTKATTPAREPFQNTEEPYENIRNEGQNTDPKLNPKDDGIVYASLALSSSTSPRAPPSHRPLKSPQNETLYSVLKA
T5 sequence (Q9UKJ1 20-303 R78G): as the sequence (Q9UKJ1 20-303) above, with R59G counted along it
T2 sequence (Q9UKJ0 20-191 limits assumed): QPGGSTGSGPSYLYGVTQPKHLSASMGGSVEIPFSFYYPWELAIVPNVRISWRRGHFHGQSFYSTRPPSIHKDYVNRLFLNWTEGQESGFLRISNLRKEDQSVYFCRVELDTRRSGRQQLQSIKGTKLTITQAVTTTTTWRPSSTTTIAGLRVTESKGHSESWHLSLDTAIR
T6 sequence (A0A7N9CRU1 entry or part of it): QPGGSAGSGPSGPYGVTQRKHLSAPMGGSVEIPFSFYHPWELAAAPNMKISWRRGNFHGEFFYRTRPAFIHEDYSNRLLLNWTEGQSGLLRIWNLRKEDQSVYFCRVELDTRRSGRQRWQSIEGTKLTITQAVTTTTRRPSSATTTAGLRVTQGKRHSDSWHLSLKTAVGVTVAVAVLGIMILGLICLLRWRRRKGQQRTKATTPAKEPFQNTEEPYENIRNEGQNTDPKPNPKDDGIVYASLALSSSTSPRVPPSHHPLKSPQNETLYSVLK
T3 sequence (Q9UKJ1 20-197 limits assumed): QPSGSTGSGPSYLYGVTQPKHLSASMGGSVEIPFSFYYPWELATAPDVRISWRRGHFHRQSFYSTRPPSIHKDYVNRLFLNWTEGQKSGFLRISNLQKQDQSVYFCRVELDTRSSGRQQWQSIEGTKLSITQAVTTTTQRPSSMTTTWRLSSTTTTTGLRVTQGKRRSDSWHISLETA
T4 sequence (chain, as listed by the source limits assumed): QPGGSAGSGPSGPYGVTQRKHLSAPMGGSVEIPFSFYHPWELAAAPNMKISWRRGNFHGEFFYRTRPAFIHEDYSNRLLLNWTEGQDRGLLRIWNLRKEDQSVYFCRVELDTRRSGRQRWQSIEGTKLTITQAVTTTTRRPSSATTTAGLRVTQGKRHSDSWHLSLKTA
T7 sequence (Q9UKJ0 20-227): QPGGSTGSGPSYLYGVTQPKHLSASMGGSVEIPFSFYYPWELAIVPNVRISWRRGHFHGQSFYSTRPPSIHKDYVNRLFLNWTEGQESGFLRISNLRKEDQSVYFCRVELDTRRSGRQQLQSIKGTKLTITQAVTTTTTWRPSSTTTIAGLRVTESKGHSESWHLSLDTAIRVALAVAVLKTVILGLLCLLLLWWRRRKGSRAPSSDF

Binder | Hu Mono DR EC50 [1] [µg/mL] | Kd (recombinant human PILRB [2]) [nM] | Kd (recombinant human PILRA [3]) [nM] | Kd (recombinant human PILRB [4]) [nM] | Kd (recombinant human PILRA [5]) [nM] | Kd [6] [nM] | hA/hB binding ratio on HEK293F [7] | Kd [8] [nM] | Kd [9] [nM] | Kd [10] [nM] | EC50 (read off the curve) [11] [µg/mL] | EC50 (read off the curve) [12] [µg/mL] | EC50 (read off the curve) [13] [µg/mL] | EC50 (read off the curve) [14] [µg/mL]
B1 | 0.1 | 53 | 3.1 | 157 | 3.5 | 1.5 | 71.1 | 8.9 | 0.8 | 216 | ~0.6 | ~0.1 |  | 
B2 | 0.3 | 80 | 3.4 | 142 | 4.8 | 0.3 | 79.8 | 2.3 | 1.6 |  | ~0.5 | ~0.1 | ~0.3 | ~0.2
